Measurements published in patent US20260116937A1 (CHARACTER BIOSCIENCES, published 2026).

B1: Factor H-like protein 1 (FHL-1) (other)
chain: EDCNELPPRRNTEILTGSWSDQTYPEGTQAIYKCRPGYRSLGNVIMVCRKGEWVALNPLRKCQKRPCGHPGDTPFGTFTLTGGNVFEYGVKAVYTCNEGYQLLGEINYRECDTDGWTNDIPICEVVKCLPVTAPENGKIVSSAMEPDREYHFGQAVRFVCNSGYKIEGDEEMHCSDDGFWSKEKPKCVEISCKSPDVINGSPISQKIIYKENERFQYKCNMGYEYSERGDAVCTESGWRPLPSCEEKSCDNPYIPNGDYSPLRIKHRTGDEITYQCRNGFYPATRGNTAKCTSTGWIPAPRCTLKPCDYPDIKHGGLYHENMRRPYFPVAVGKYYSYYCDEHFETPSGSYWDHIHCTQDGWSPAVPCLRKCYFPYLENGYNQNYGRKFVQGKSIDVACHPGYALPKAQTTVTCMENGWSPTPRCIRVSFTL
notes: Control protein, purified or as CHO culture supernatant; also called native FHL-1
B2: Var004 (engineered variant of FHL-1) (designed binder)
chain: EDCNELPPRRNTEILTGSWSDQTYPEGTQAIYKCRPGYRSLGNVIMVCRKGEWVALNPLRKCQKRPCGHPGDTPFGTFTLTGGNVFEYGVKAVYTCNEGYQLLGEINYRECDTDGWTNDIPICEVVKCLPVTAPENGKIVSSAMEPDREYHFGQAVRFVCNSGYKIEGDEEMHCSDDGFWSKEKPKCVEISCKSPDVINGSPISQKIIYKENERFQYKCNMGYEYSERGDAVCTESGWRPLPSCEEKSCDNPYIPNGDYSPLRIKHRTGDEITYQCRNGFYPATRGNTAKCTSTGWIPAPRCTLKPCDYPDIKHGGLYHENMRRPYFPVAVGKYYSYYCDEHFETPSGSYWDHIHCTQDGWSPAVPCLRKCYFPYLENGYNQNYGRKFVQGKSIDVACHPGYALPKAQTTVTCMENGWSPTPRCIRVSGGGGSGGGGSGGGGSTLKPCDYPDIKHGGLYHENMRRPYFPVAVGKYYSYYCDEHFETPSGSYWDHIHCTQDGWSPAVPCLRKCYFPYLENGYNQNYGRKFVQGKSIDVACHPGYALPKAQTTVTCMENGWSPTPRCIRVSFTL
notes: Tested as purified protein or as CHO culture supernatant; also called FHL-1 engineered variant
B3: complement factor H (CFH) (other)
chain: EDCNELPPRRNTEILTGSWSDQTYPEGTQAIYKCRPGYRSLGNVIMVCRKGEWVALNPLRKCQKRPCGHPGDTPFGTFTLTGGNVFEYGVKAVYTCNEGYQLLGEINYRECDTDGWTNDIPICEVVKCLPVTAPENGKIVSSAMEPDREYHFGQAVRFVCNSGYKIEGDEEMHCSDDGFWSKEKPKCVEISCKSPDVINGSPISQKIIYKENERFQYKCNMGYEYSERGDAVCTESGWRPLPSCEEKSCDNPYIPNGDYSPLRIKHRTGDEITYQCRNGFYPATRGNTAKCTSTGWIPAPRCTLKPCDYPDIKHGGLYHENMRRPYFPVAVGKYYSYYCDEHFETPSGSYWDHIHCTQDGWSPAVPCLRKCYFPYLENGYNQNYGRKFVQGKSIDVACHPGYALPKAQTTVTCMENGWSPTPRCIRVKTCSKSSIDIENGFISESQYTYALKEKAKYQCKLGYVTADGETSGSITCGKDGWSAQPTCIKSCDIPVFMNARTKNDFTWFKLNDTLDYECHDGYESNTGSTTGSIVCGYNGWSDLPICYERECELPKIDVHLVPDRKKDQYKVGEVLKFSCKPGFTIVGPNSVQCYHFGLSPDLPICKEQVQSCGPPPELLNGNVKEKTKEEYGHSEVVEYYCNPRFLMKGPNKIQCVDGEWTTLPVCIVEESTCGDIPELEHGWAQLSSPPYYYGDSVEFNCSESFTMIGHRSITCIHGVWTQLPQCVAIDKLKKCKSSNLIILEEHLKNKKEFDHNSNIRYRCRGKEGWIHTVCINGRWDPEVNCSMAQIQLCPPPPQIPNSHNMTTTLNYRDGEKVSVLCQENYLIQEGEEITCKDGRWQSIPLCVEKIPCSQPPQIEHGTINSSRSSQESYAHGTKLSYTCEGGFRISEENETTCYMGKWSSPPQCEGLPCKSPPEISHGVVAHMSDSYQYGEEVTYKCFEGFGIDGPAIAKCLGEKWSHPPSCIKTDCLSLPSFENAIPMGEKKDVYKAGEQVTYTCATYYKMDGASNVTCINSRWTGRPTCRDTSCVNPPTVQNAYIVSRQMSKYPSGERVRYQCRSPYEMFGDEEVMCLNGNWTEPPQCKDSTGKCGPPPPIDNGDITSFPLSVYAPASSVEYQCQNLYQLEGNKRITCRNGQWSEPPKCLHPCVISREIMENYNIALRWTAKQKLYSRTGESVEFVCKRGYRLSSRSHTLRTTCWDGKLEYPTCAKR
notes: Purified CFH used as control

Target: T1, human C3b (human, UniProt P01024 749-1663; P01024 23-667)
T1 construct: Coated on ELISA plates
Experiment: ELISA on C3b-coated plates, absorbance at 450 nm
Experimental: A representative example of an FHL-1 engineered variant (e.g., a polypeptide of SEQ ID NO: 21) was compared with CFH and FHL-1 for C3b binding activity as presented in FIGS. 14A and 14B. […] In general, the data was derived from measuring binding on C3b coated plates via ELISA for test proteins (either as purified proteins or as culture supernatants from CHO cells transfected with expression vectors encoding test proteins). C3b binding activity was measured via absorbance at 450 nm. Mean+/−SEM absorbance values are shown with nonlinear sigmoidal 4PL fit. Of note, the FHL-1 engineered variant (e.g., Var 004, SEQ ID NO: 21) has increased C3b binding activity over native FHL-1.

T1 sequence (P01024 749-1663, chain 1 of 2): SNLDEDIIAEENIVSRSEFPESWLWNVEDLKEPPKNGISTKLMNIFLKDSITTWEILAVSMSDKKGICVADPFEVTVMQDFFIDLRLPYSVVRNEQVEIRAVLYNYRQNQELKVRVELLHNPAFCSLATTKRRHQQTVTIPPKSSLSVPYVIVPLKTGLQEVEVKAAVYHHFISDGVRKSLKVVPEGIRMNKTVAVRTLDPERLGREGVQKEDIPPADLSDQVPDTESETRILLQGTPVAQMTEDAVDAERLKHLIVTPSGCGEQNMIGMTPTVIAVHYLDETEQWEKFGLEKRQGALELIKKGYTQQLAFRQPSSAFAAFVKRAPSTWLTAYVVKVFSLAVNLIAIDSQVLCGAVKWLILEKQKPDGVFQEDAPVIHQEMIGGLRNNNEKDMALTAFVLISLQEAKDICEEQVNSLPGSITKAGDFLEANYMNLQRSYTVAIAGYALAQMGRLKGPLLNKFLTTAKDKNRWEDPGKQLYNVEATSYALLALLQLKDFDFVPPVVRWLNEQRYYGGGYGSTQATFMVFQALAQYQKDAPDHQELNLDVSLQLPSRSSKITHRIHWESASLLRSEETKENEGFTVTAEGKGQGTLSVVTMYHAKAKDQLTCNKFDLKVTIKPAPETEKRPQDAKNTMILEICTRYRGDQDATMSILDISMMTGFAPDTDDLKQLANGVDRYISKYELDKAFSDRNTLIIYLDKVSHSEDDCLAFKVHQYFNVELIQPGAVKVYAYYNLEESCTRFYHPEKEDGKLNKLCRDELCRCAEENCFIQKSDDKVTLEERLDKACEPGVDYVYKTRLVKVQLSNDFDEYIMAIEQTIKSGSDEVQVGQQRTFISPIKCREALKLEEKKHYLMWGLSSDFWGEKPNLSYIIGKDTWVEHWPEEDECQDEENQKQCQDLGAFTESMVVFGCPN
T1 sequence (P01024 23-667, chain 2 of 2): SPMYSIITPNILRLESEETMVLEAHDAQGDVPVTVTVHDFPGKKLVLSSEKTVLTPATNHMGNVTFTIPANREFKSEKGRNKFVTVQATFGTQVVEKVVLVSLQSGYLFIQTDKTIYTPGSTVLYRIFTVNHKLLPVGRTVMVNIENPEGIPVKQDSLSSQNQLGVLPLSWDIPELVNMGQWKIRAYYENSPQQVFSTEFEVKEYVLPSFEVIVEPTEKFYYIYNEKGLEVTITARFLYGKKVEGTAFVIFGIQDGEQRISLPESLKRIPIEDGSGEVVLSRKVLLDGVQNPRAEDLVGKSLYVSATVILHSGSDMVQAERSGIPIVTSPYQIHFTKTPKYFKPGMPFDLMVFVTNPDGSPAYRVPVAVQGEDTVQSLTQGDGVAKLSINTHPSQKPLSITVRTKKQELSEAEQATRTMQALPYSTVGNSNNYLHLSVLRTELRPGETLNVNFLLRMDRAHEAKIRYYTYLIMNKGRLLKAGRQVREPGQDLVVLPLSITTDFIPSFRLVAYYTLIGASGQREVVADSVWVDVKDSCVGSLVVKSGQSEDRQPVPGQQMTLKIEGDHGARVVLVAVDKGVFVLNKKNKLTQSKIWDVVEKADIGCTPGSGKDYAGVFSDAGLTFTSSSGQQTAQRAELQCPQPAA

binding result | Binder
binds | B1
binds | B2
binds | B3
